According to patent publication US20250122274A1 (SCHOLAR ROCK, published 2025):

Key:
[1] = molecular target: cyno pro-myostatin (cynomolgus monkey); experiment: ELISA-type titration, OD 450 nm, Cyno-Pro-GDF-8 Plate 1; protocol not described in the text
[2] = molecular target: cyno pro-myostatin (cynomolgus monkey); experiment: ELISA-type titration, OD 450 nm, Cyno-Pro-GDF-8 Plate 2; protocol not described in the text
[3] = molecular target: T1, murine pro-myostatin (mouse, UniProt O08689 25-376, biotinylated (SPR)); experiment: ELISA-type titration, absorbance 450 nm, panel Murine Pure Pro-GDF-8; protocol not described in the text
T1 construct: also called proGDF8 (mouse); mouse pro-myostatin

[4] = molecular target: T2, human pro-myostatin (human, UniProt O14793 24-375, biotinylated (SPR)); experiment: SPR Biacore 8K, biotinylated antigen captured
T2 construct: Disulfide-linked homodimer; also called proGDF8 (human)

[5] = molecular target: T1, murine pro-myostatin; experiment: ELISA-type titration, OD 450 nm, Mu-Pro-GDF-8 Plate 1; protocol not described in the text

B1: Ab110 (antibody, human IgG4 S228P, kappa, V domains shown)
VH: QVQLVQSGAEVKKPGASVKVSCKVSEYTFTNYDIHWVRQAPGKGLEWMGGISAYHGNAIYAQKFQGRVTMTEDTSTDTAYMELSSLKSEDTAVYYCARDRVRRDYYNFGMDVWGQGTTVTVSS
VL: DIQMTQSPSSVSASVGDRVTITCRASEDITSYLAWYQQKPGKAPKLLIYDVSSLQSGVPSRFSGSGSGTDFTLTISSLQPEDFANYYCLQHNAYPYGFGGGTKVEIKR
- EC50 (read off the curve) [1]: 0.3 nM

B2: Ab116 (antibody, human IgG4 S228P, kappa, V domains shown)
VH: QVQLVQSGAEVKKPGASVKVSCKVSGFTFSRPAIHWVRQAPGKGLEWMGGINPNAATTIYAQKFQGRVTMTEDTSTDTAYMELSSLKSEDTAVYYCARGRLLREWELRPYDTWGQGTLVTVSS
VL: DIQMTQSPSSVSASVGDRVTITCRASQSIGKSLAWYQQKPGKAPKLLIYSASNLRSGVPSRFSGSGSGTDFTLTISSLQPEDFANYYCQQYRDVPPITFGGGTKVEIKR
- EC50 (read off the curve) [2]: 0.5 nM

B3: Ab104 (antibody, human IgG4 S228P, kappa, V domains shown)
VH: EVQLVESGGGLVQPGGSLRLSCAASGSAFSSYGMSWVRQAPGKGLELVASINSNGGSTYYPDSVKGRFTISRDNAKNSLYLQMNSLRAEDTAVYYCARDLLVKFLSWSHYYGMDVWGQGTTVTVSS
VL: DIVMTQSPLSLPVTPGEPASISCRSSQSLLHSSGHNFLHWYLQKPGQSPQLLIYEVSNRVSGVPDRFSGSGSGTDFTLKISRVEAEDVGVYYCMQQTQYPPTFGGGTKVEIKR
- EC50 (read off the curve) [3]: ~0.7 nM

B4: Ab109 (antibody, human IgG4 S228P, kappa, V domains shown)
VH: EVQLVESGGGLVQPGGSLRLSCAASGFTFSSYGMSWVRQAPGKGLELVASFTGSGGTYYPDSVKGRFTISRDNAKNSLYLQMNSLRAEDTAVYYCARDLLIRFLEWSHYYGMDVWGQGTTVTVSS
VL: DIVMTQSPLSLPVTPGEPASISCRSSQSLLHSSGHNFLHWYLQKPGQSPQLLIYEVSNRVSGVPDRFSGSGSGTDFTLKISRVEAEDVGVYYCMQQTQYPPTFGGGTKVEIKR
notes: also called Ab109 Human IgG4
- koff [4]: ~0.000916 s⁻¹

B5: Ab113 (antibody, human IgG4 S228P, kappa, V domains shown)
VH: QVQLVQSGAEVKKPGASVKVSCKVSGYLLTELSIHWVRQAPGKGLEWMGGIIPSFGTAIYAQKFQGRVTMTEDTSTDTAYMELSSLKSEDTAVYYCAISYSGFDLLPLDKWGQGTLVTVSS
VL: DIQMTQSPSSVSASVGDRVTITCRASQHISTWLAWYQQKPGKAPKLLIYYASSLQGGVPSRFSGSGSGTDFTLTISSLQPEDFANYYCLQTYTYPRTFGGGTKVEIKR
- binding result [5]: binds
